This is an account of results in the supplement of paper PMC10724198.

± gives the standard deviation of the averaged measurements.
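Further: PSI is a weighted mean of sequencing reads over stability bins, variants kept only with over 10 reads, mCherry proximal and sfGFP distal, peptide attached via GGGS linker.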

The series deals with Saccharomyces cerevisiae. Put plainly: protein stability index of tFT-peptide fusion (C-terminal peptide) (PSI (0-1 scale)); higher = more stable (slower turnover). As to conditions: genetic background: wild type; temperature: 30 C.
As to SSTPYRHLLTPH, the protein stability index is 0.723 ± 0.013.
Regarding SSVNYPSFPPLA, the protein stability index was 0.706 ± 0.03.
In turn, SSVQVSMGTAAG showed a protein stability index of 0.681 ± 0.036.
Under STAFRDSAMRDP stands 0.664 ± 0.051; under STCPPIFFVSSW, 0.7248 ± 0.0063.
Under STLEKTFRVAKR stands 0.694 ± 0.011; under STLIARAQRGQA, 0.639 ± 0.073.
Under STLSSPSRRLLP stands 0.677 ± 0.03; under STPPPPPTFQLS, 0.691 ± 0.047; under STPRTPNFPATA, 0.706 ± 0.019.
In the case of STQIRQILERKC, the protein stability index came to 0.653 ± 0.051.
STRPDLLLLAES displayed a protein stability index of 0.6 ± 0.055.
STSPFPAPRRAL gave a protein stability index of 0.775 ± 0.052.
STTILIKKKNDK returned a protein stability index of 0.684 ± 0.041.
Under STTPKFNILASD stands 0.646 ± 0.022; under STVKVVIIHFKI, 0.48 ± 0.036.
Under STVPDRPRLPVY stands 0.674 ± 0.022.
Under SVCVLGPLDGSC stands 0.701 ± 0.022; under SVEKYDGGKGVV, 0.69 ± 0.0095; under SVESAVRALQPT, 0.731 ± 0.042.
In turn, SVFTLLGSMCLE yielded a protein stability index of 0.664 ± 0.011.
Under SVGGSRSGRGGQ stands 0.688 ± 0.011; under SVGLLLSPFPPL, 0.6882 ± 0.0063.
Under SVKGRVPLYVSE stands 0.658 ± 0.042; under SVLVQLLATTKS, 0.675 ± 0.028.
Under SVPLTLLPPLFP stands 0.694 ± 0.016.
SVPLYRLSSWRN registered a protein stability index of 0.695 ± 0.021.
SVPPPPLARALL displayed a protein stability index of 0.759 ± 0.057.
Under SVPTPPLVPSIS stands 0.665 ± 0.07.
As to SVSLPPSLPFLL, the protein stability index worked out at 0.764 ± 0.03.
Under SVVGGVVVELEG stands 0.65 ± 0.0096.
In turn, SVVVWRWVCGWS had a protein stability index of 0.549 ± 0.014.
Under SVWDGSRVKCST stands 0.704 ± 0.04; under SVYPSSPTRPPP, 0.683 ± 0.048; under SVYVGAQAFCTC, 0.612 ± 0.025.
As to SWCDKGSCLVDE, the protein stability index came out at 0.695 ± 0.07.
In turn, SWIQLDAWETRS returned a protein stability index of 0.696 ± 0.041.
Under SWKEAIVAISGS stands 0.612 ± 0.058; under SWRKGAHRPVEV, 0.66 ± 0.036; under SWRRAASSGGGE, 0.618 ± 0.074.
SWSVSVNMVGQS gave a protein stability index of 0.6829 ± 0.0042.
In turn, SWVFSVDNGLVV yielded a protein stability index of 0.6133 ± 0.0012.
Under SWYQPSLREYAQ stands 0.74268 ± 0.00062.
Regarding SWYSRARMAGEG, the protein stability index was 0.652 ± 0.0093.
Under SYGTIGYLATSF stands 0.687 ± 0.075; under SYLRGPIVTGFG, 0.712 ± 0.077.
SYLVLLHDRGMK came in with a protein stability index of 0.665 ± 0.011.
SYMCRCALDCFL returned a protein stability index of 0.643 ± 0.035.
Under SYPSGFPSPSHP stands 0.834 ± 0.062.
Under SYRHHPTVPSTY stands 0.705 ± 0.057; under SYRPPYTQPTDL, 0.658 ± 0.064.
For the sequence TAPGYLGFSPFE, the protein stability index was 0.713 ± 0.034.
Under TARIIAHPQTRI stands 0.661 ± 0.032.
Under TARQNRARPGHP stands 0.678 ± 0.022; under TASPAHTPTKTR, 0.608 ± 0.051.
With TCAPTRISRTPG, the protein stability index is 0.6883 ± 0.00073.
Under TCFPDLLVLPAR stands 0.7008 ± 0.0022; under TCFWFTCSDPFF, 0.773 ± 0.096; under TCLWVCAWGFGG, 0.716 ± 0.011.
Under TCVLPDLNTRWS stands 0.685 ± 0.02; under TDCAPRGGRWKR, 0.656 ± 0.14; under TDFPRDFPPVDL, 0.7526 ± 0.0029.
TEVWSGFARWGG showed a protein stability index of 0.675 ± 0.046.
The sequence TFFFLGSVFSLA displayed a protein stability index of 0.638 ± 0.043.
Under TFFLPPSCFYPP stands 0.616 ± 0.051; under TFNRIFGNALPG, 0.688 ± 0.044; under TFPATSLPSFSL, 0.6861 ± 0.0031.
Under TFPKKKGLLNIS stands 0.636 ± 0.028; under TFRKMEKKKDGG, 0.652 ± 0.018.
Turning to TGAPSKQYDRFL, the protein stability index turned out to be 0.747 ± 0.045.
For TGEFILLFSWFV, the protein stability index came out at 0.584 ± 0.0024.
Sequence TGEIREEWRKNI had a protein stability index of 0.54 ± 0.03.
Under TGHFSTTPPRPH stands 0.714 ± 0.077; under TGKTHSGNKYER, 0.684 ± 0.059; under TGSLLWGCFALL, 0.623 ± 0.054.
Under TGVSTRVTHTAP stands 0.707 ± 0.014; under TGYDERSRFIEI, 0.68 ± 0.1; under THGMFVFSPPWF, 0.785 ± 0.1.
Under THHTPKILNTKR stands 0.708 ± 0.063; under THPPLTSRSSPP, 0.654 ± 0.044.
